Where a chain is given by its changes, count along the chain named. Names may count otherwise.

The target of this experiment is GST-α-synuclein, P37840. Put plainly: GST pull-down (glutathione agarose), western blot, ImageJ quantification. The following applies: chain shown with the change; E. coli lysates, in vitro; parent: est. 1.0; read off a plot. For orientation: A western blot detects proteins with antibodies after separation by electrophoresis.

B1: His6-DNAJB11 WT, Q9UBS4 T188A (protein)
chain: GRDFYKILGVPRSASIKDIKKAYRKLALQLHPDRNPDDPQAQEKFQDLGAAYEVLSDSEKRKQYDTYGEEGLKDGHQSSHGDIFSHFFGDFGFMFGGTPRQQDRNIPRGSDIIVDLEVTLEEVYAGNFVEVVRNKPVARQAPGKRKCNCRQEMRTTQLGPGRFQMAQEVVCDECPNVKLVNEERTLEVEIEPGVRDGMEYPFIGEGEPHVDGEPGDLRFRIKVVKHPIFERRGDDLYTNVTISLVESLVGFEMDITHLDGHKVHISRDKITRPGAKLWKKGEGLPNFDNNNIKGSLIITFDVDFPKEQLTEEAREGIKQLLKQGSVQKVYNGLQGY
For B1, the ratio to parent was found to be 0.8.

B2: His6-DNAJB11 WT, Q9UBS4 T188E (protein)
chain: B1 chain with A166E
As for B2, the ratio to parent turned out to be 4.9.

The record behind these values is paper PMC12430012.
